Assay [1] concerns Dysf. CD8+ T cells. The experiment in a line: reprogramming treatment of Dysf. (chronic TCR plus TGFβ1) human CD8+ T cells. It is filed as cell-based. The following applies: sorted most dysfunctional subset, added to RepSox. On the procedure:
On day 7, viable CD8+ T cells were FACS-purified using the Sony MA900 cell sorter. Purified CD8+ T cells were then continuously stimulated in plates coated with anti-CD3 only (5 ug/ml). Media was replenished every 2-3 days, and cells were incubated at 37 C and 5% CO2 throughout the duration of the experiment. Human TGFβ1 (5 ng/ml, Peprotech) was added to the media starting on day 7. Treatment with RepSox (25 μM) and SB4 (10 μM) (MedChemExpress LLC) or vehicle control (DMSO, ThermoFisher) were added to the media starting on day 14 or 21. Vitamin C (100 μM, MedChemExpress LLC) was added to the media starting on day 21. For the acute TCR stimulation condition, anti-CD3 was no longer added to the media starting on day 7. For recovery experiments in FIG. 16 and FIGS. 22 and 26, CD8+ T cells were rested from TCR stimulation and TGFβ1 starting on day 28 for 7-14 days in T cell media containing recombinant human IL-15 only (10 ng/ml).
On days 7, 14, 21, and 28 (and day 35 and 42 for recovery experiments), human CBMCs were stimulated with PMA/Ionomycin (Cell Stimulation Cocktail plus protein transport inhibitors, eBioscience) for 3 hours at 37° C., 5% CO2. Incubation was followed immediately by antibody intracellular staining for flow cytometry.
Human CBMCs from ex vivo stimulation experiments (acute or chronic TCR, and chronic TCR+TGFβ1) were labeled with 5(6)-Carboxyfluorescein diacetate N-succinimidyl ester (CFSE) (1 μM, Sigma) by staining in PBS for 7 minutes at room temperature, followed by quenching with 20% FBS. Proliferation was tracked on days 35 and 42 by assessing CFSE fluorescence via flow cytometry. Each peak of CFSE fluorescence signal represents one cell division cycle.

Assay [2] relates to human CD8+ T cells. The experiment in a line: whole-genome bisulfite sequencing of human CD8+ T cells. The assay is classed as cell-based. The following applies: combined with RepSox. How it is done: Human CD8+ T cells were sorted on days 0 (naïve), 7, and 28, and genomic DNA was extracted and bisulfite-treated to convert unmethylated cytosine to uracil residues using the EZ DNA Methylation-Direct Kit (Zymo). DNA libraries were prepared using Swift Accel-NGS® D Methyl-Seq DNA Library Kit according to the manufacturer's protocol. The libraries were purified by the AMPureXP Beads followed by QC using Qubit method, and the purified DNA was captured on an Illumina flow cell for cluster generation. Libraries were sequenced on the NovaSeq-S2 platform following the manufacturer's protocols. Sequencing data were aligned to the Hg38 genome using BSMAP. Adapter were trimmed from FASTQ sequences (trimglore) and mapped to the hg38 genome using the BSMAP v. 2.74 software. CpGs were extracted by the methratio.py in the BSMAP package. Differential analysis of CpG methylation among the datasets was determined with a Bayesian hierarchical model to detect regional methylation differences with at least three CpG site. Differentially methylated regions (DMRs) were identified using Bioconductor package DSS and custom R scripts with a threshold of 30% change in methylation ratio and P-value <0.01 with at least 10 reads per CpG site as a cutoff.

Assay [3] relates to adult CD8+ T cells. Nature of the assay: chronic TCR plus TGFβ1 stimulation of adult CD8+ T cells from healthy blood donors. The assay is classed as cell-based, human. On the procedure:
Isolated adult PBMCs were stained on day 0 for cell sorting of naïve CD8+ T cells (viable CD3+ CD8+ CCR7+ CD45RO−) and viable CD3− PBMCs using the Sony MA900 sorter. The cells were seeded into 96-well U-bottom plate (˜5,000 naïve T cells+45,000 CD3− cells per well) on day 0 with 30 ng/ml of purified anti-human CD3, in complete T cell medium as described above. On day 4, the wells were transferred to a 96-well flat-bottom plate coated with anti-human CD3 and CD28 antibodies as described above, and stimulation was continued for an additional three days. On day 7, the cells were returned to culture with continuous stimulation using soluble anti-CD3 (30 ng/ml) or repeated plate-bound anti-CD3 stimulation through day 28. Media was replenished every 2-3 days. Treatments were added to the media as described above for CBMCs experiments.

The subject of assay [4] is P14 CD8 T cells. The experiment in a line: in-vitro co-culture of P14 CD8 T cells with CT2A-gp33 tumor cells (Example 1). The assay is classed as cell-based, mouse. The following applies: P14 cells. An excerpt: To study their epigenetic (re)programming, we developed a novel in-vitro model of CD8 T cell exhaustion. First, we optimized conditions for in-vitro co-culture of gp33-expressing murine brain tumor cells (CT2A-gp33) and TCR transgenic gp33-specific CD8 T cells (P14 cells). We were able to enforce differentiation of anti-tumor CD8 T cells under their persistent TCR stimulation by repeated exposure to the tumor antigen and tumor-derived factors, such as TGFβ1. […] However, with prolonged exposure to the tumor antigen, the effector CD8 T cells progressively lose cytokine production and tumor killing activity (FIGS. 8A, 8B, and 8C).
To assess the impact of TGFβ1 signaling on the progression of CD8 T cells toward dysfunction, we treated co-cultures with TGFβ1 or RepSox (also known as E-616452) (2-(3-(6-Methylpyridine-2-yl)-1H-pyrazol-4-yl)-1,5-naphthyridine) as shown in the formula: […]
RepSox is a potent selective inhibitor of the TGFβ type 1 receptor (ALK5)—for 11 days after effector differentiation was complete (day 6).
We also examined the impact of BMP-2/4 signaling on RepSox-treated P14 CD8 T cells. […] Taken together, our findings indicate that TGFβ1-signaling not only accelerates the development of T cell dysfunction, but also maintains silencing of lymphoid homing markers on CD8 T cells. Importantly, our findings support the feasibility of using this novel in-vitro model as a tractable tool that can guide our in-vivo work by providing first-line mechanistic studies.

In assay [5] the test system is human CD8+ T cells. Nature of the assay: chronic TCR stimulation of human CBMCs in the presence of TGFβ1. It is filed as cell-based. On the procedure:
For “Weak TCR” stimulation, 30 ng/ml of purified monoclonal anti-human CD3 (clone: OKT3; BioLegend) was continuously added onto the seeded CBMCs to provide TCR stimulation plus natural costimulation via CD80/CD86 on Fc-expressing CBMCs that survive in the first few days. For “Strong TCR” stimulation setting, flat-bottom plates were coated with purified monoclonal anti-human CD3 (5 ug/ml) and anti-human CD28 (1 ug/ml) (clone: CD28.2; BioLegend) at 4° C. overnight, then CMBCs were isolated and seeded in complete T cell medium as described above on day 0. On day 7, viable CD8+ T cells were FACS-purified using the Sony MA900 cell sorter. Purified CD8+ T cells were then continuously stimulated in plates coated with anti-CD3 only (5 ug/ml). Media was replenished every 2-3 days, and cells were incubated at 37 C and 5% CO2 throughout the duration of the experiment. Human TGFβ1 (5 ng/ml, Peprotech) was added to the media starting on day 7. Treatment with RepSox (25 μM) and SB4 (10 μM) (MedChemExpress LLC) or vehicle control (DMSO, ThermoFisher) were added to the media starting on day 14 or 21. Vitamin C (100 μM, MedChemExpress LLC) was added to the media starting on day 21. For the acute TCR stimulation condition, anti-CD3 was no longer added to the media starting on day 7. […]

The subject of assay [6] is SMAD1/5/8 phosphorylation. The conditions noted are these: cited from earlier work.
Assay [7] concerns human CD8 T cells. Nature of the assay: treatment of human CD8 T cells with BMP ligands under chronic strong TCR stimulation. The assay is classed as cell-based. The following applies: for expression levels of terminal exhaustion-associated molecules (CD39, CD101, CD103): day 21; for frequencies of IFNγ-producing CD8 T cells: days 14 and 21. From the text:
BMP ligands can signal through type 1 (BMPR1, ACVR1) or type 2 receptors (BMPR2, ACVR2), which typically form heterotetramers upon ligand binding. Once heterotetramers are activated by ligands, they phosphorylate SMAD1/5/8 that binds to SMAD4 and translocates to nucleus and bind to target genes.

The mark [8] stands for this setting: adult naïve CD8+ T cells, post-effector exposure.

As for `O=C1O[C@H]([C@@H](O)CO)C(O)=C1O` [vitamin C], the effector cytokine production result in assay [1] was “further enhanced”. Further, the “DNA methylation patterns in Dysf. CD8+ T cells” value in assay [2] was “more pronounced”.
As for “TGFβ1: Human TGFβ1 cytokine (5 ng/ml, Peprotech)”, in assay [3] (setting [8]), the “expression of dysfunction-associated markers” value is given as “increased expression” and the “function of chronically stimulated adult CD8+ T cells” value is on record as “induced functional impairment”. Further, the polyfunctionality result in assay [3] (adult polyclonal effector memory (CD45RO+ CCR7−) CD8+ T cells) was “did not impact”. Also, the CD103 expression result in assay [3] (adult polyclonal effector memory CD8+ T cells) is “significant upregulation”. The “production of IFNγ and TNFα” value in assay [4] (persistent treatment for 11 days from day 6 of co-culture) was “accelerated the impairment”. In addition, in assay [4] (persistent treatment from day 6), the “expression of T-bet and Granzyme B” value is listed as “repressed expression”. In addition, the “effector functions in chronically stimulated T cells” value in assay [5] (TGFβ1 started after effector differentiation (day 7-28)) is recorded as “significantly reduced”. Also, the “survival of chronically stimulated CD8+ T cells” value in assay [5] (strong TCR stimulation) was “supported the survival”.

B1: BMP4: natural BMP ligand, bone morphogenic protein 4 (protein, UniProt P12644 293-408, looked up)
Bone morphogenetic protein 4: SPKHHSQRARKKNKNCRRHSLYVDFSDVGWNDWIVAPPGYQAFYCHGDCPFPLADHLNSTNHAIVQTLVNSVNSSIPKACCVPTELSAISMLYLDEYDKVVLKNYQEMVVEGCGCR
modifications: Bone morphogenetic protein 4
As for B1, the “activation of SMAD1/5/8 phosphorylation” value in assay [6] is “strong”. In addition, the “numbers of chronically stimulated human CD8 T cells” value in assay [7] (chronic strong TCR stimulation) is reported as “preserved significantly higher numbers”. Also, in assay [7], the “expression levels of terminal exhaustion-associated molecules (CD39, CD101, CD103)” value (“expression levels” for short) is recorded as “downregulated” and the “frequencies of IFNγ-producing CD8 T cells” value is “significantly higher frequencies”.

B2: BMP6: natural BMP ligand (protein, UniProt P22004 375-513, looked up)
Bone morphogenetic protein 6: SASSRRRQQSRNRSTQSQDVARVSSASDYNSSELKTACRKHELYVSFQDLGWQDWIIAPKGYAANYCDGECSFPLNAHMNATNHAIVQTLVHLMNPEYVPKPCCAPTKLNAISVLYFDDNSNVILKKYRNMVVRACGCH
modifications: Bone morphogenetic protein 6
notes: natural BMP ligand
For the molecule B2, in assay [6], the “activation of SMAD1/5/8 phosphorylation” value is on record as “strong”. Moreover, the “expression levels” value in assay [7] is “downregulated”.

B3: BMP12: BMP ligand (protein, UniProt Q7Z4P5 322-450, looked up)
Growth/differentiation factor …: TALAGTRTAQGSGGGAGRGHGRRGRSRCSRKPLHVDFKELGWDDWIIAPLDYEAYHCEGLCDFPLRSHLEPTNHAIIQTLLNSMAPDAAPASCCVPARLSPISILYIDAANNVVYKQYEDMVVEACGCR
With B3, the “activation of SMAD1/5/8 phosphorylation” value in assay [6] is “medium or weak”.

B4: BMP14: BMP ligand (protein, UniProt P43026 382-501, looked up)
Growth/differentiation factor …: APLATRQGKRPSKNLKARCSRKALHVNFKDMGWDDWIIAPLEYEAFHCEGLCEFPLRSHLEPTNHAVIQTLMNSMDPESTPPTCCVPTRLSPISILFIDSANNVVYKQYEDMVVESCGCR
modifications: Growth/differentiation factor 5
notes: BMP ligand
Regarding B4, the “activation of SMAD1/5/8 phosphorylation” value in assay [6] is “medium or weak”.

B5: BMP10: natural BMP ligand (protein, UniProt O95393 317-424, looked up)
Bone morphogenetic protein 10: NAKGNYCKRTPLYIDFKEIGWDSWIIAPPGYEAYECRGVCNYPLAEHLTPTKHAIIQALVHLKNSQKASKACCVPTKLEPISILYLDKGVVTYKFKYEGMAVSECGCR
B5: the “activation of SMAD1/5/8 phosphorylation” value in assay [6] is listed as “medium or weak”. In assay [7], the “expression levels” value was “downregulated” and the “frequencies of IFNγ-producing CD8 T cells” value is “significantly higher frequencies”.

The values are drawn from patent US20260108496A1, “METHODS FOR REPROGRAMING EXHAUSTED T CELLS AND BOOSTING IMMUNE CHECKPOINT BLOCKADE THERAPY FOR CANCER” (Ohio State Innovation Foundation, priority 2022, published 2026).
